Like-named read-outs stand apart in the source and are kept apart here.
T1: CEA (UniProt P06731 35-685)
T1 sequence (looked up): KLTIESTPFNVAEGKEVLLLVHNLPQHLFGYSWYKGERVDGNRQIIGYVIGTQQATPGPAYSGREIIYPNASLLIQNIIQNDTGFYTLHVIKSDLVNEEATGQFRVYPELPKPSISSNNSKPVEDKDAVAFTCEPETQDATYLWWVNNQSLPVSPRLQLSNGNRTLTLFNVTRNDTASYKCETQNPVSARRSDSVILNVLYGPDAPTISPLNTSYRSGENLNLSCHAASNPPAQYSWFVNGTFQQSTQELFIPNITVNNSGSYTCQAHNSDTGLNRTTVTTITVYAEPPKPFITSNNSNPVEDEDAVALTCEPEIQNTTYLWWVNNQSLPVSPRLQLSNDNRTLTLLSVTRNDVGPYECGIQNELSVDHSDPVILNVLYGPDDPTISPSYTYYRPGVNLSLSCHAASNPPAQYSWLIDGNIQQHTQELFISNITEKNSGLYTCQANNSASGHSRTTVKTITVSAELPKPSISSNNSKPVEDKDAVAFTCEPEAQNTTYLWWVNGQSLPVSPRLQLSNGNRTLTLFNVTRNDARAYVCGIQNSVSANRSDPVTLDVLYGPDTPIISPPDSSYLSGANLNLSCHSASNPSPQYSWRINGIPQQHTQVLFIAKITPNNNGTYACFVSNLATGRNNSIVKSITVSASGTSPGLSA


What was measured:
EGFR [1] = target: T2, EGFR (UniProt P00533 25-1210, limits assumed); test: cell-based or functional assay
EGFR [2] = target: T2, EGFR; test: flow cytometry, serial dilution on FaDu cells (EGFR-expressing), PE anti-human Fc detection
Procedure: (§1) Binding analysis of the trivalent, bispecific antibodies was performed by flow cytometry using tumor cell lines with different EGFR-expression levels (FIG. 20) (Table 12). Adherent cells were washed with PBS and shortly trypsinized at 37° C. Trypsin was quenched with FCS-containing medium and removed by centrifugation (500×g, 5 min.). Target cells (FaDu, LIM1215, SKBR-3, T-47-D, MCF-7 and Jurkat cells) at 1×10⁵ cells/well were incubated with a serial dilution of trivalent, bispecific antibodies for 1 h at 4° C. After removing excess of recombinant protein by washing with PBA (PBS, 2% FBS, and 0.02% sodium azide), bound protein was detected using PE-conjugated anti-human Fc mAb (Jackson ImmunoResearch Laboratories Inc). Fluorescence was measured using MACSquant VYB (Miltenyi Biotec) and data were analyzed using FlowJo (Tree Star). Relative median fluorescence intensities (MFI) were calculated as followed: relative MFI=((MFIₛₐₘₚₗₑ-(MFIdetection-MFIcells))/MFIcells).

CD3 [3] = target: T3, CD3 (UniProt P07766 23-207); test: flow cytometry, serial dilution on Jurkat cells (CD3-expressing), PE anti-human Fc detection
T3 construct: whole, on cells; on cells it stands in the TCR/CD3 complex; also called CD3 on Jurkat cells
Procedure: as §1

EGFR [4] = target: T2, EGFR; test: flow cytometry, serial dilution on MCF-7 cells (EGFR-expressing), PE anti-human Fc detection
Procedure: as §1

EGFR [5] = target: T2, EGFR; test: flow cytometry, serial dilution on SKBR-3 cells (EGFR-expressing), PE anti-human Fc detection
Procedure: as §1

EGFR [6] = target: T2, EGFR; test: flow cytometry, serial dilution on T-47-D cells (EGFR-expressing), PE anti-human Fc detection
Procedure: as §1

EGFR [7] = target: T2, EGFR; test: flow cytometry, serial dilution on LIM1215 cells (EGFR-expressing), PE anti-human Fc detection
Procedure: as §1

CEA [8] = target: T1, CEA; test: cell-based or functional assay
CEA [9] = target: T1, CEA; test: cell-based or functional assay; remark: listed apart in the source
CD3 [10] = target: T3, CD3; test: flow cytometry, serial dilution on Jurkat cells (CD3-expressing), PE anti-human Fc detection; remark: listed apart in the source
Procedure: (§2) Binding of trivalent, bispecific fusion proteins to CEA-expressing (LIM1215) and CD3-expressing (Jurkat) cell lines was analyzed by flow cytometry. 2×10⁵ cells/well were incubated with a serial dilution of trivalent, bispecific antibodies for 1 h at 4° C. followed by detection using a PE-conjugated anti-human Fc antibody (Jackson ImmunoResearch Laboratories Inc). […] Regarding the CEA-expressing cell line LIM1215, the trivalent, bispecific antibodies bound with EC₅₀ values in the nanomolar range (FIG. 16A) (Table 9).

CEA [11] = target: T1, CEA; test: flow cytometry, serial dilution on LIM1215 cells (CEA-expressing), PE anti-human Fc detection
Procedure: as §2

Binder	EC50 of PBMC cytotoxicity on FaDu cells, E:T 5:1 (EGFR [1]) [nM]	EC50 of PBMC cytotoxicity on SKBR-3 cells, E:T 5:1 (EGFR [1]) [nM]	EC50 (EGFR [2]) [nM]	EC50 (CD3 [3]) [nM]	EC50 (EGFR [4]) [nM]	EC50 (EGFR [5]) [nM]	EC50 (EGFR [6]) [nM]	EC50 (EGFR [7]) [nM]	EC50 of PBMC cytotoxicity on LIM1215 cells, E:T 10:1 (CEA [8]) [nM]	EC50 of IL-2 release, PBMCs co-cultured with LIM1215 cells (CEA [9]) [nM]	EC50 (CD3 [10]) [nM]	EC50 (CEA [11]) [nM]
scDb/scFv-Fc (1-2)+1, trivalent bispecific anti-EGFRxanti-CD3 (bispecific antibody, also called scDbhu225xhuU3-Fc(hole)Δab + scFvhu225-Fc(knob)Δab) chain 1: EVQLVESGGGLVQPGGSLRLSCAASGFSLTNYGVHWVRQAPGKGLEWLGVIWSGGNTDYNTPFTSRFTISRDNSKNTLYLQMNSLRAEDTAVYYCARALTYYDYEFAYWGQGTTVTVSSGGGGSDIQMTQSPSSLSASVGDRVTITCRASQDIRNYLNWYQQKPGKAPKLLIYYTSRLHSGVPSRFSGSGSGTDFTFTISSLQPEDIATYYCQQGNTLPWTFGQGTKLEIKRGGGGSGGGGSGGGGSQVQLVQSGAEVKKPGSSVKVSCKASGGTFSGYTMNWVRQAPGQGLEWMGLINPYKGVSTYNGKFKDRVTITADKSTSTAYMELSSLRSEDTAVYYCARSGYYGDSDWYFDVWGQGTLVTVSSGGGGSDIQLTQSPSFLSASVGDRVTITCRASQSIGTNIHWYQQKPGKAPKLLIKYASESISGVPSRFSGSGSGTEFTLTISSLQPEDFATYYCQQNNNWPTTFGAGTKLEIKRAAADKTHTCPPCPAPPVAGPSVFLFPPKPKDTLMISRTPEVTCVVVDVSHEDPEVKFNWYVDGVEVHNAKTKPREEQYNSTYRVVSVLTVLHQDWLNGKEYKCKVSNKGLPSSIEKTISKAKGQPREPQVCTLPPSRDELTKNQVSLSCAVKGFYPSDIAVEWESNGQPENNYKTTPPVLDSDGSFFLVSKLTVDKSRWQQGNVFSCSVMHEALHNHYTQKSLSLSPGK chain 2: EVQLVESGGGLVQPGGSLRLSCAASGFSLTNYGVHWVRQAPGKGLEWLGVIWSGGNTDYNTPFTSRFTISRDNSKNTLYLQMNSLRAEDTAVYYCARALTYYDYEFAYWGQGTTVTVSSGGGGSGGGGSGGGGSDIQLTQSPSFLSASVGDRVTITCRASQSIGTNIHWYQQKPGKAPKLLIKYASESISGVPSRFSGSGSGTEFTLTISSLQPEDFATYYCQQNNNWPTTFGAGTKLEIKRAAADKTHTCPPCPAPPVAGPSVFLFPPKPKDTLMISRTPEVTCVVVDVSHEDPEVKFNWYVDGVEVHNAKTKPREEQYNSTYRVVSVLTVLHQDWLNGKEYKCKVSNKGLPSSIEKTISKAKGQPREPQVYTLPPCRDELTKNQVSLWCLVKGFYPSDIAVEWESNGQPENNYKTTPPVLDSDGSFFLYSKLTVDKSRWQQGNVFSCSVMHEALHNHYTQKSLSLSPGK	0.026	0.126	1.1	9.6	0.03	0.09	0.02	0.2	–	–	–	–
scDb/Fab-Fc (1-2)+1, trivalent bispecific anti-EGFRxanti-CD3 (bispecific antibody, also called scDbhu225xhuU3-Fc(hole)Δab + Fdhu225-Fc(knob)Δab + VLhu225-CLκ) EVQLVESGGGLVQPGGSLRLSCAASGFSLTNYGVHWVRQAPGKGLEWLGVIWSGGNTDYNTPFTSRFTISRDNSKNTLYLQMNSLRAEDTAVYYCARALTYYDYEFAYWGQGTTVTVSSGGGGSDIQMTQSPSSLSASVGDRVTITCRASQDIRNYLNWYQQKPGKAPKLLIYYTSRLHSGVPSRFSGSGSGTDFTFTISSLQPEDIATYYCQQGNTLPWTFGQGTKLEIKRGGGGSGGGGSGGGGSQVQLVQSGAEVKKPGSSVKVSCKASGGTFSGYTMNWVRQAPGQGLEWMGLINPYKGVSTYNGKFKDRVTITADKSTSTAYMELSSLRSEDTAVYYCARSGYYGDSDWYFDVWGQGTLVTVSSGGGGSDIQLTQSPSFLSASVGDRVTITCRASQSIGTNIHWYQQKPGKAPKLLIKYASESISGVPSRFSGSGSGTEFTLTISSLQPEDFATYYCQQNNNWPTTFGAGTKLEIKRAAADKTHTCPPCPAPPVAGPSVFLFPPKPKDTLMISRTPEVTCVVVDVSHEDPEVKFNWYVDGVEVHNAKTKPREEQYNSTYRVVSVLTVLHQDWLNGKEYKCKVSNKGLPSSIEKTISKAKGQPREPQVCTLPPSRDELTKNQVSLSCAVKGFYPSDIAVEWESNGQPENNYKTTPPVLDSDGSFFLVSKLTVDKSRWQQGNVFSCSVMHEALHNHYTQKSLSLSPGK heavy: EVQLVESGGGLVQPGGSLRLSCAASGFSLTNYGVHWVRQAPGKGLEWLGVIWSGGNTDYNTPFTSRFTISRDNSKNTLYLQMNSLRAEDTAVYYCARALTYYDYEFAYWGQGTTVTVSSASTKGPSVFPLAPSSKSTSGGTAALGCLVKDYFPEPVTVSWNSGALTSGVHTFPAVLQSSGLYSLSSVVTVPSSSLGTQTYICNVNHKPSNTKVDKKVEPKSCGTDKTHTCPPCPAPPVAGPSVFLFPPKPKDTLMISRTPEVTCVVVDVSHEDPEVKFNWYVDGVEVHNAKTKPREEQYNSTYRVVSVLTVLHQDWLNGKEYKCKVSNKGLPSSIEKTISKAKGQPREPQVYTLPPCRDELTKNQVSLWCLVKGFYPSDIAVEWESNGQPENNYKTTPPVLDSDGSFFLYSKLTVDKSRWQQGNVFSCSVMHEALHNHYTQKSLSLSPGK light: DIQLTQSPSFLSASVGDRVTITCRASQSIGTNIHWYQQKPGKAPKLLIKYASESISGVPSRFSGSGSGTEFTLTISSLQPEDFATYYCQQNNNWPTTFGAGTKLEIKRTVAAPSVFIFPPSDEQLKSGTASVVCLLNNFYPREAKVQWKVDNALQSGNSQESVTEQDSKDSTYSLSSTLTLSKADYEKHKVYACEVTHQGLSSPVTKSFNRGEC	0.05	0.209	0.2	1	0.04	0.1	0.03	0.2	–	–	–	–
scDb/Fab-Fc (2-1)+1, trivalent bispecific anti-CEAxanti-CD3 (bispecific antibody, human IgG1, kappa, also called scDbhuU3xCEA-Fc(hole)Δab + VHCEA-CH1-Fc(knob)Δab + VLCEA-CLκ) QVQLVQSGAEVKKPGSSVKVSCKASGGTFSGYTMNWVRQAPGQGLEWMGLINPYKGVSTYNGKFKDRVTITADKSTSTAYMELSSLRSEDTAVYYCARSGYYGDSDWYFDVWGQGTLVTVSSGGGGSDIELTQSPAIMSASPGEKVTITCSASSSVSYMHWFQQKPGTSPKLWIYSTSNLASGVPARFSGSGSGTSYSLTISRMEAEDAATYYCQQRSSYPLTFGAGTKLELKRGGGGSGGGGSGGGGSQVKLQQSGAELVRSGTSVKLSCTASGFNIKDSYMHWLRQGPEQGLEWIGWIDPENGDTEYAPKFQGKATFTTDTSSNTAYLQLSSLTSEDTAVYYCNEGTPTGPYYFDYWGQGTTVTVSSGGGGSDIQMTQSPSSLSASVGDRVTITCRASQDIRNYLNWYQQKPGKAPKLLIYYTSRLHSGVPSRFSGSGSGTDFTFTISSLQPEDIATYYCQQGNTLPWTFGQGTKLEIKRAAADKTHTCPPCPAPPVAGPSVFLFPPKPKDTLMISRTPEVTCVVVDVSHEDPEVKFNWYVDGVEVHNAKTKPREEQYNSTYRVVSVLTVLHQDWLNGKEYKCKVSNKGLPSSIEKTISKAKGQPREPQVCTLPPSRDELTKNQVSLSCAVKGFYPSDIAVEWESNGQPENNYKTTPPVLDSDGSFFLVSKLTVDKSRWQQGNVFSCSVMHEALHNHYTQKSLSLSPGK heavy: QVKLQQSGAELVRSGTSVKLSCTASGFNIKDSYMHWLRQGPEQGLEWIGWIDPENGDTEYAPKFQGKATFTTDTSSNTAYLQLSSLTSEDTAVYYCNEGTPTGPYYFDYWGQGTTVTVSSASTKGPSVFPLAPSSKSTSGGTAALGCLVKDYFPEPVTVSWNSGALTSGVHTFPAVLQSSGLYSLSSVVTVPSSSLGTQTYICNVNHKPSNTKVDKKVEPKSCDKTHTCPPCPAPPVAGPSVFLFPPKPKDTLMISRTPEVTCVVVDVSHEDPEVKFNWYVDGVEVHNAKTKPREEQYNSTYRVVSVLTVLHQDWLNGKEYKCKVSNKGLPSSIEKTISKAKGQPREPQVYTLPPCRDELTKNQVSLWCLVKGFYPSDIAVEWESNGQPENNYKTTPPVLDSDGSFFLYSKLTVDKSRWQQGNVFSCSVMHEALHNHYTQKSLSLSPGK light: DIELTQSPAIMSASPGEKVTITCSASSSVSYMHWFQQKPGTSPKLWIYSTSNLASGVPARFSGSGSGTSYSLTISRMEAEDAATYYCQQRSSYPLTFGAGTKLELKRRTVAAPSVFIFPPSDEQLKSGTASVVCLLNNFYPREAKVQWKVDNALQSGNSQESVTEQDSKDSTYSLSSTLTLSKADYEKHKVYACEVTHQGLSSPVTKSFNRGEC	–	–	–	–	–	–	–	–	1.2	3.5	6.1	2.1

Reference: US20220396635A1 (UNIVERSIT T STUTTGART, published 2022)
